We go through one substance from US20250134988A1.

The experiment has as its target CoV2_5P prefusion-stabilized spike protein (SARS-CoV-2) (UniProt P0DTC2). As to the kind of experiment: ELISA. On the technique in general: In an ELISA, binding on a coated surface is turned into a signal by an enzyme label.

The EC50 (read off the curve) is the concentration needed to bring the measured effect to its halfway point. Lower therefore signals higher potency in that assay. For the substance CR3022 (antibody), the EC50 (read off the curve) was found to be 0.02 µg/mL.
